# Reference: US10274499B2, “SH2 domain variants” (THE UNIVERSITY OF WESTERN ONTARIO, priority 2012, dated 2019)
# Columns and labels:
# [1] = target: T1, EGFR (Homo sapiens, UniProt P00533); test: immunoprecipitation of GFP-fused SH2 domains with EGFR in HEK 293 cells; type: cell-based; details: GFP-fusion expressed in HEK 293 cells, EGF 100 ng/ml, anti-GFP and anti-EGFR antibodies
# T1 construct: endogenous in cells; host or cells: HEK 293
# Source text: The three variant SH2 domains mentioned in the previous sentence were dubbed as 8V/10A/15L-substituted SH2 domains, or the TrM SH2 domains, in the following descriptions, as well as in FIG. 11 and FIG. 12. The wild-type (Wt) and TrM SH2 domains, subcloned into the pEGFPC2 vector, were expressed in the HEK 293 cells as a GFP-fusion protein. Methods used in this and the following sections are described below.
# Anti-GFP rabbit polyclonal antibody was purchased from Sigma-Aldrich. Anti-EGFR rabbit polyclonal antibody was purchased from Millipore. Anti-p44/42 MAPK (Erk1/2) mouse monoclonal antibody, and anti-phospho-p44/42 MAPK (Thr202/Tyr204) mouse monoclonal antibody were purchased from Cell Signaling. HEK 293 cells were grown in Dulbecco's modification of Eagle's medium (DMEM, Sigma-Aldrich) supplemented with 10% fetal bovine serum (FBS, SAFC Biosciences), 50 units/ml penicillin and 50 μg/ml streptomycin (GIBCO Invitrogen Corp.) in a humidified atmosphere of 5% CO2 in air at 37° C. EGF (Invitrogen) at a final concentration of 100 ng/ml was added to the medium at the indicated time point. Transient transfections were carried out with jet-PEI (PolyPlus-Transfection; Illkirch, France) according to manufacturer's instruction. […]
# [2] = test system: seven fluorescein-labeled pTyr-containing peptides; test: in-solution fluorescence polarization binding assay, set of seven peptides; details: average over seven peptides, relative to the wild type of the same SH2 domain
# Method: Each peptide was synthesized on the TentaGel amide resin (INTAVIS Inc.) and N-terminally labeled with fluorescein using NHS-fluorescein (Thermo Fisher Scientific). Each of the 13 variant and the wild-type SH2 domain was produced by overexpression in the Escherichia coli BL21(DE3) strain cultured in LB media (EMD Chemicals). Expression was induced by 0.3 mM isopropyl β-D-1-thiogalactopyranoside (IPTG), and the cell culture was incubated for 5 hours at 37° C. The cells were harvested by centrifuge, and broken on ice, in buffer solution containing 20 mM sodium phosphate, 0.1 M NaCl, 20 mM imidazole, 1 mg/ml lysozyme and 1% Triton-X 100, adjusted at pH 7.8. Affinity purification was performed with the Ni-NTA agarose resin (Qiagen Inc.), according to the manufacturer's instruction. […] Measurements of fluorescence polarization were conducted by titrating the SH2 domain concentration, while keeping the peptide concentration constant. Kd values were calculated with the GraphPad Prism software, by assuming the one-site binding model (GraphPad Software).
# The determined Kd values of interaction between the 14 SH2 domains (including the wild-type) and seven peptides were listed in FIG. 7(a). […]
# Fluorescence polarization assay was conducted to determine Kd values of the interaction between the wild-type or variant Src SH2 domain and seven fluorescein-labeled pTyr-containing peptides (FIG. 9a).
binding to EGFR (immunoprecipitation) [1],"average affinity increase, Kd[wild-type] divided by Kd[variant] [2] [fold]",Substance
Weak binding,–,wild-type Grb2 SH2 domain: polypeptide between Met55 and Pro158 of the human Grb2 [reference compound]
–,1.4,"T8V: variant Fyn SH2 domain, Thr at position 8 to Val; SEQ ID NO:5 (RKDAERQLLSFGNPRGTFLIRESETVKGAYSLSIRDWDDMKGDHVKHYK; Synthetic construct T8V)"
did not show detectable binding,–,wild-type Src SH2 domain: human Src SH2 domain between Asp144 and Lys252; SEQ ID NO:18 [reference compound]
